According to the RNAGym collection of RNA variant scans (doi:10.7554/elife.90254):

B1: LINE1-full (parent)
chain: UACGUAGGUGGUUUUCCCCUGAUAGUGCUAAGGGGGCCUGGAAGUUUGGACUGGGCAGAGCUCAACACAGCGUGGCAAAGUGGCUGUGGCUAGACUGCCUCUCUGGAUUCCUCGUCACUCAGCAGGGCAUCUCUGAGAGAAAUGCC

Variants of: B1
Experiment: self-cleavage, relative activity (ratio to wild type); higher = more cleavage; in vitro, sequencing; the parent is a self-cleaving ribozyme
With U47A A78U the self-cleavage was 2.04.
Variant U23C A78U has a self-cleavage of 2.06.
In the case of A42G A65U, the self-cleavage is reported as 0.32.
In the case of U47G A141G, the self-cleavage is reported as 1.45.
U46A U85C gave a self-cleavage of 0.08.
For C113U U143A, the self-cleavage was 1.1.
C56U C128U gave a self-cleavage of 0.22.
A140U gave a self-cleavage of 1.26.
G53A U73A gave a self-cleavage of 1.88.
In the case of G35A U115C, the self-cleavage is reported as 1.03.
C90A showed a self-cleavage of 0.04.
For A79U U115C, the self-cleavage was 1.12.
Variant A6G U12G has a self-cleavage of 0.85.
For G4A U130C, the self-cleavage was 1.38.
A6C U115A gave a self-cleavage of 0.8.
For U46G U102C, the self-cleavage was 1.19.
For A50G A107G, the self-cleavage was 1.1.
For A64U U119C, the self-cleavage was 0.61.
With U52A U112C the self-cleavage was 1.43.
With U13C C51G the self-cleavage was 1.44.
With A59G A94U the self-cleavage was 0.07.
Variant G70C G144A has a self-cleavage of 0.15.
Work on G11C U109C yielded a self-cleavage of 2.63.
Variant U62C U115C has a self-cleavage of 0.1.
In the case of U26C A140G, the self-cleavage is reported as 1.19.
With G127A U130C the self-cleavage was 1.31.
Work on G7A U73A yielded a self-cleavage of 1.31.
For U102C U132A, the self-cleavage was 1.34.
For U91A U112C, the self-cleavage was 0.58.
For G41A A59G, the self-cleavage was 0.07.
U29A A57G showed a self-cleavage of 1.01.
For U26G A107G, the self-cleavage was 0.
With G105U G144A the self-cleavage was 1.31.
Work on U104C U143C yielded a self-cleavage of 2.1.
For A67C C118G, the self-cleavage was 0.05.
C51A U96A showed a self-cleavage of 0.11.
With U91C A117C the self-cleavage was 1.24.
U47A A124G gave a self-cleavage of 0.79.
With A31G C38U the self-cleavage was 0.99.
Work on U13C G44A yielded a self-cleavage of 0.75.
U9C A117C showed a self-cleavage of 1.41.
A77G U115A gave a self-cleavage of 2.25.
Variant A65U U87C has a self-cleavage of 0.04.
Variant U14C G75A has a self-cleavage of 0.82.
With U14C A57C the self-cleavage was 0.36.
In the case of U132C U143A, the self-cleavage is reported as 1.35.
In the case of U20C A42U, the self-cleavage is reported as 1.06.
G54A G72A showed a self-cleavage of 0.45.
Variant A65G U130C has a self-cleavage of 0.1.
Variant C28A U39A has a self-cleavage of 1.54.
A22G A59C gave a self-cleavage of 1.31.
U5A U45G showed a self-cleavage of 0.71.
For A31U A78U, the self-cleavage was 1.57.
U13C U109C showed a self-cleavage of 1.
Variant A42G U143C has a self-cleavage of 1.3.
A30U U134A showed a self-cleavage of 0.68.
U100A A121G gave a self-cleavage of 1.58.
In the case of U14C C111U, the self-cleavage is reported as 1.14.
Variant U20G C95U has a self-cleavage of 0.29.
A42U A140G gave a self-cleavage of 1.29.
In the case of A24G A117U, the self-cleavage is reported as 1.09.
For G34U A141G, the self-cleavage was 1.56.
In the case of U9G A107G, the self-cleavage is reported as 1.13.
For U13C C99G, the self-cleavage was 0.39.
Variant A43G G54A has a self-cleavage of 0.41.
G75A U115A showed a self-cleavage of 1.12.
Work on G21A U45C yielded a self-cleavage of 0.84.
For A92G U96C, the self-cleavage was 0.25.
G88A A138G showed a self-cleavage of 0.06.
With C98A A138G the self-cleavage was 0.29.
In the case of G88A U96C, the self-cleavage is reported as 0.02.
With A31G C37U the self-cleavage was 1.6.
In the case of U12G G44U, the self-cleavage is reported as 1.1.
U39A G72A gave a self-cleavage of 1.81.
For C71U C111U, the self-cleavage was 0.82.
Variant U5C U100C has a self-cleavage of 1.52.
U52C U100A gave a self-cleavage of 0.63.
For A59G U134A, the self-cleavage was 0.08.
With U9A U14G the self-cleavage was 0.
Variant U119G A140G has a self-cleavage of 2.22.
Variant A24G U134A has a self-cleavage of 0.99.
Variant G11A U52C has a self-cleavage of 1.41.
With A77G U109G the self-cleavage was 0.
U52C C146U gave a self-cleavage of 2.19.
Work on U5C C113A yielded a self-cleavage of 0.36.
In the case of U45C C66A, the self-cleavage is reported as 0.19.
For U9G A138U, the self-cleavage was 1.51.
Work on A117U U130C yielded a self-cleavage of 1.58.
Variant U12C A142G has a self-cleavage of 1.13.
Work on G74A A124G yielded a self-cleavage of 0.51.
U87A U134A showed a self-cleavage of 0.13.
In the case of G48A G55U, the self-cleavage is reported as 0.19.
A57G A79G showed a self-cleavage of 1.32.
In the case of A24G A141G, the self-cleavage is reported as 1.22.
Variant U14G U29C has a self-cleavage of 1.6.
Work on G40A U46C yielded a self-cleavage of 1.4.
Variant A65G U132A has a self-cleavage of 0.04.
For G7U G11C, the self-cleavage was 1.02.
G21U A77G gave a self-cleavage of 1.7.
For U9C U132C, the self-cleavage was 1.47.
C38U C110A gave a self-cleavage of 1.64.
Work on U52G G72A yielded a self-cleavage of 0.
With C37U A136U the self-cleavage was 1.49.
With U12G A42G the self-cleavage was 1.42.
A64G U115A showed a self-cleavage of 0.08.
Work on G127U yielded a self-cleavage of 1.24.
With A79G U104A the self-cleavage was 1.35.
With U12G G32C the self-cleavage was 1.04.
With G33C A117U the self-cleavage was 0.85.
Work on U29A U115C yielded a self-cleavage of 1.98.
A57U G60C gave a self-cleavage of 0.05.
For U20C A121G, the self-cleavage was 1.35.
C18A U115C gave a self-cleavage of 1.85.
For A50G A77U, the self-cleavage was 0.73.
Work on G106A G135U yielded a self-cleavage of 1.88.
With U119C G122U the self-cleavage was 2.35.
Work on A24G A65G yielded a self-cleavage of 0.3.
G80A C128U gave a self-cleavage of 1.9.
Variant A31C U132C has a self-cleavage of 2.33.
G54C gave a self-cleavage of 0.86.
Variant U29C G125A has a self-cleavage of 0.94.
In the case of C19U U85C, the self-cleavage is reported as 0.21.
U73G U130C gave a self-cleavage of 2.25.
For A124C A141G, the self-cleavage was 1.71.
Work on U9C U109C yielded a self-cleavage of 0.99.
In the case of A79G U109A, the self-cleavage is reported as 1.19.
A30U U39G showed a self-cleavage of 1.46.
In the case of A43G U130A, the self-cleavage is reported as 1.51.
A6U A78G showed a self-cleavage of 0.77.
Work on U47C U134C yielded a self-cleavage of 1.74.
U47C G53U showed a self-cleavage of 1.3.
For A50U A138U, the self-cleavage was 1.16.
Variant A24G U96A has a self-cleavage of 0.11.
Variant U15C G27A has a self-cleavage of 1.1.
For U62C A121U, the self-cleavage was 0.04.
For U73C C145A, the self-cleavage was 1.44.
For C19A U104C, the self-cleavage was 1.14.
In the case of U14C C56U, the self-cleavage is reported as 0.18.
For G11A A43G, the self-cleavage was 1.42.
In the case of C66U U91A, the self-cleavage is reported as 0.05.
U9C A129C gave a self-cleavage of 1.24.
Work on A42G A59G yielded a self-cleavage of 0.11.
U39A A65U showed a self-cleavage of 0.15.
In the case of A2U A107U, the self-cleavage is reported as 0.52.
With U20C A92C the self-cleavage was 0.14.
Work on G93A A129G yielded a self-cleavage of 0.08.
In the case of U1C A22G, the self-cleavage is reported as 0.84.
Variant U20C A64G has a self-cleavage of 0.41.
A57G U143A showed a self-cleavage of 0.84.
G127U U143C showed a self-cleavage of 1.66.
In the case of U1C A121U, the self-cleavage is reported as 1.06.
For U47A, the self-cleavage was 1.22.
U14C G35U gave a self-cleavage of 1.02.
U39C G139A gave a self-cleavage of 0.58.
For U81A A124U, the self-cleavage was 1.78.
With A22U G126A the self-cleavage was 1.5.
Work on A65U U73C yielded a self-cleavage of 0.16.
A42G U85A showed a self-cleavage of 0.15.
U112A A142C showed a self-cleavage of 1.46.
In the case of A92G G122A, the self-cleavage is reported as 0.13.
For G126U A140G, the self-cleavage was 0.66.
For U109A A136U, the self-cleavage was 2.61.
Variant C51A A107U has a self-cleavage of 1.3.
With A65C U81A the self-cleavage was 0.02.
A6G C133U showed a self-cleavage of 0.59.
In the case of U73G U132C, the self-cleavage is reported as 1.58.
For U23C U104C, the self-cleavage was 1.78.
